Source: US10253086B2, “CD20 therapies, CD22 therapies, and combination therapies with a CD19 chimeric antigen receptor (CAR)-expressing cell” (Novartis AG, priority 2015, dated 2019)

Legend:
[1] = system: CD19 and CD22; assay: NFAT assay of bispecific CAR19/CAR22 constructs; format: cell-based
Procedure: The bispecific CD19-CD22 and CD22-CD19 constructs described above were tested in an NFAT assay, as described in the Examples below. As controls, an anti-CD19 alone CAR and an anti-CD22 alone CAR were used.

[2] = system: luciferase-expressing mantle cell line (RL luc); assay: RL luc mantle cell lymphoma xenograft, CART19 with exogenous IL-7; format: in vivo, NSG mice
Procedure: Next, the effect of exogenous IL-7 treatment on anti-tumor activity of CART19 cells was assessed in a lymphoma animal model. NSG mice were engrafted with a luciferase-expressing mantle cell line (RL luc) on Day 0 (D0), followed by treatment of CART19 cells on Day 6. The NSG mice were divided into groups, where one group received no CART19 cells, a second group received 0.5×10^6 CART19 cells, a third group received 1×10^6 CART19 cells, and a fourth group received 2×10^6 CART19 cells. Tumor size was monitored by measuring the mean bioluminescence of the engrafted tumors over more than 80 days. […] When comparing the tumor burden of mice that received IL-7 treatment to control, before and after IL-7 treatment, tumor reduction in tumor burden was only seen in the mice that had received IL-7 treatment (FIG. 10C).
T cell dynamics following IL-7 treatment in the lymphoma animal model was also examined. Human CART19 cells were not detectable in the blood prior to IL-7 treatment. […] The extent of T cell expansion observed in mice receiving the IL-7 also correlated with tumor response. The mouse with the highest number of T cells detected in the blood at peak expansion during IL-7 treatment (mouse #3815) had the most robust reduction in tumor burden (see FIG. 10B). Moreover, the time of peak expansion correlated with the T cell dose injected as baseline. The number/level CD3-expressing cells in the blood were also measured before and after IL-7 treatment.

[3] = system: Raji-Luc and Daudi-Luc; assay: IFN-gamma and IL-2 secretion by CD22 CAR primary T cells; format: cell-based, human; conditions: E:T 10 to 1, 20-hr co-culture
Procedure: CD22 CAR constructs were also tested for the ability to promote secretion of IFN-gamma and IL-2. Briefly, transduced primary T cells from healthy donors expressing the different CD22 CARs were co-cultured with the CD22-positive target cells Raji-Luc and Daudi-Luc as well as the negative control K562-Luc. T cells and target cell were cultured in an effector-to-target cell ratio (E:T) of 10 to 1. Supernatants were harvested after 20-hr co-culture. […] Similar results were observed when Nalm6-Luc, Pfeiffer-Luc, and K562-CD22-Luc, and SEM-Luc cells were tested (data not shown). Minimal IFN-gamma secretion was observed when the K562-Luc negative control cell line was tested (bottom panel).

[4] = system: Raji, SEM, K562-hCD22, Daudi, and Nalm6; assay: Primary T-cell tumor target killing assay; format: cell-based, human; conditions: for target cell killing: CD22 expressing luciferase target cell lines
Excerpt: Primary T-cells activated and transduced as described above were mixed with target cell lines stably expressing luciferase at the ratios indicated (FIG. 20A-20F). […] Untransduced T-cells (UTD) lacked the ability to kill target cell lines.

[5] = system: CD22; assay: NFAT assay of CD22 CAR in JNL cells on antigen-coated plates; format: cell-based, human
Procedure: Several CD22 CAR constructs were functionally validated in an NFAT assay. Briefly the experiments were performed as follows. A lentiviral vector (pELPS) carrying a nucleic acid, encoding a CD22 CAR with a CD22-binding scFv domain was introduced by electroporation into a Jurkat T cell line modified to express luciferase under the control of an NFAT response element (JNL). The cells were cultured and allowed to express the CAR construct. The electroporated cells were applied to a plate coated with the target antigen (CD22). Detection of luciferase signal in the coated plate was indicative of binding activity of the CD22 CAR to its antigen, leading to activation of the T cells and expression of luciferase.
The results also indicate that the different scFvs compete with m971 to different extents.
FIG. 72 is a graph showing the activation (in RLU) of several CD22 CAR-expressing JNL cells including CD22-57, CD22-58, CD22-59, CD22-60, CD22-61, CD22-62, and CD22-63, the scFv sequences of which are provided herein. Three different target proteins (CD22-FL-Fc, CD22-D567-Fc, and CD22-D67) were used to coat the tissue culture plates; a negative control (Fc) was also included. A mesothelin binding CAR (Meso-G07) was used as a negative control. CD22-12 and CD22-53 were used as positive controls. […] Domain mapping was performed on CD22 binding domains. Three different forms of antigens were used: CD22 full-length with all 7 external domains, Domain567 (in which domains 1-4 were deleted) and Domain67 (in which domains 1-5 were deleted). While not wishing to be bound by theory, it appears that the binding of various CD22 clones maps to the epitopes illustrated in FIG. 75.
Two scFvs, named CD22-64 and CD22-65, were produced by affinity maturation of hCD22-12. CAR constructs containing these scFvs were tested for activity in an NFAT assay as described above. […] The bars in the figure represent, from left to right, CD22 full length-Fc; CD22 D567-Fc; and an Fc only negative control used for coating of the plates.

[6] = molecular target: recombinant human CD22-Fc (Homo sapiens, UniProt P20273); assay: Surface expression of CD22 CAR in primary human T-cells (Protein-L, rhCD22-Fc); format: cell-based; conditions: day 10, flow cytometry
Procedure: Primary human T-cells were activated with anti-CD3/antiCD28 stimulatory beads on day 0, followed by lentiviral transduction of specified CAR constructs on day 1. Cells were expanded in vitro until day, 10 at which point they were analyzed by flow cytometry for surface expression of CAR. Two different approaches were utilized to determine surface expression of CAR: Protein-L-biotin followed by streptavidin-PE, and recombinant human CD22-Fc followed by anti-Fc-alexafluor 488. […] CD22 CAR m971 served as a positive control for binding both Protein-L and hrCD22-Fc, and Isotype CAR with no specificity (anti-gH) served as a positive control for Protein-L. T cells expressing no CAR were used as a negative control.

[7] = system: cynomolgus CD123; assay: Cross-reactivity of anti-CD123 clones with cynomolgus CD123; format: binding
Excerpt: Their activity was compared against mouse clones 1172 and 1176, comprising the VH and VL domains in a light-to-heavy orientation with a CD8 hinge domain, CD8 transmembrane domain, and 41BB-costimulatory domain. […] 1172 is not.

B1: CD22-CD19: bispecific scFv tandem fusion CAR, hCD22-2 and humanized anti-CD19 (104876) (protein)
scFv: EVQLQQSGPGLVKPSQTLSLTCAISGDSVSSNSAAWNWIRQSPSRGLEWLGRTYYRSKWYNDYAVSVKSRITINPDTSKNQFSLQLNSVTPEDTAVYYCARDLGWIAVAGTFDYWGQGTLVTVSSGGGGSGGGGSGGGGSQSALTQPASVSGSPGQSITISCTGTSSDVGGYNYVSWYQQHPGKAPKLMIYDVSKRPSGVSNRFSGSKSGNTASLTISGLQAEDEADYYCSSYTSSSLNHVFGTGTKVTVLTGGGGSGGGGSGGGGSGGGGSEIVMTQSPATLSLSPGERATLSCRASQDISKYLNWYQQKPGQAPRLLIYHTSRLHSGIPARFSGSGSGTDYTLTISSLQPEDFAVYFCQQGNTLPYTFGQGTKLEIKGGGGSGGGGSGGGGSQVQLQESGPGLVKPSETLSLTCTVSGVSLPDYGVSWIRQPPGKGLEWIGVIWGSETTYYQSSLKSRVTISKDNSKNQVSLKLSSVTAADTAVYYCAKHYYYGGSYAMDYWGQGTLVTVSS
activity in NFAT assay [1]: active against their targets

B2: IL-7: exogenous recombinant human IL-7 (protein, UniProt P13232 26-177, looked up)
Interleukin-7: DCDIEGKDGKQYESVLMVSIDQLLDSMKEIGSNCLNNEFNFFKRHICDANKEGMFLFRAARKLRQFLKMNSTGDFDLHLLKVSEGTTILLNCTGQVKGRKPAALGEAQPTKSLEENKSLKEQKKLNDLCFLKRLLQEIKTCWNKILMGTKEH
reduction in tumor burden ([2]; IL-7 200 ng/mouse i.p. three times weekly from Day 85, mice with suboptimal CART19 response): 1-3 log
CD3-expressing cells in the blood ([2]; after IL-7 treatment vs control mice): significant increase in CD3+ cells
numbers of T cells in blood ([2]; upon IL-7 treatment): rapid, but variable increase in the numbers of T cells

B3: CD19-CD22: bispecific scFv tandem fusion CAR, humanized anti-CD19 (104876) and hCD22-2 (protein)
scFv: EIVMTQSPATLSLSPGERATLSCRASQDISKYLNWYQQKPGQAPRLLIYHTSRLHSGIPARFSGSGSGTDYTLTISSLQPEDFAVYFCQQGNTLPYTFGQGTKLEIKGGGGSGGGGSGGGGSQVQLQESGPGLVKPSETLSLTCTVSGVSLPDYGVSWIRQPPGKGLEWIGVIWGSETTYYQSSLKSRVTISKDNSKNQVSLKLSSVTAADTAVYYCAKHYYYGGSYAMDYWGQGTLVTVSSGGGGSGGGGSGGGGSGGGGSEVQLQQSGPGLVKPSQTLSLTCAISGDSVSSNSAAWNWIRQSPSRGLEWLGRTYYRSKWYNDYAVSVKSRITINPDTSKNQFSLQLNSVTPEDTAVYYCARDLGWIAVAGTFDYWGQGTLVTVSSGGGGSGGGGSGGGGSQSALTQPASVSGSPGQSITISCTGTSSDVGGYNYVSWYQQHPGKAPKLMIYDVSKRPSGVSNRFSGSKSGNTASLTISGLQAEDEADYYCSSYTSSSLNHVFGTGTKVTVLT
activity in NFAT assay [1]: active against their targets

B4: m971-HL: CD22 (m971-derived) CAR construct that served as positive control (antibody, V domains shown)
VH: QVQLQQSGPGLVKPSQTLSLTCAISGDSVSSNSAAWNWIRQSPSRGLEWLGRTYYRSKWYNDYAVSVKSRITINPDTSKNQFSLQLNSVTPEDTAVYYCAREVTGDLEDAFDIWGQGTMVTV
VL: DIQMTQSPSSLSASVGDRVTITCRASQTIWSYLNWYQQRPGKAPNLLIYAASSLQSGVPSRFSGRGSGTDFTLTISSLQAEDFATYYCQQSYSIPQTFGQGTKLEIK
IFN-gamma secretion [3]: induced IFN-gamma secretion
target cell killing [4]: dose-dependent target cell killing

B5: CD22-12: human CD22 CAR, parent of CD22-64 and CD22-65 (protein)
scFv: EVQLQQSGPGLVKPSQTLSLTCAISGDSVLSNSDTWNWIRQSPSRGLEWLGRTYHRSTWYDDYASSVRGRVSINVDTSKNQYSLQLNAVTPEDTGVYYCARDRLQDGNSWSDAFDVWGQGTMVTVSSGGGGSGGGGSGGGGSQSALTQPASASGSPGQSVTISCTGTSSDVGGYNYVSWYQQHPGKAPKLMIYDVSNRPSGVSNRFSGSKSGNTASLTISGLQAEDEADYYCSSYTSSSTLYVFGTGTQLTVL
activity (see Example 25) [5]: found to have activity
antigen binding / activation (RLU) vs m971 ([5]; with and without m971 scFv competitor): bind the antigen approximately as well as the m971 positive control
IFN-gamma secretion [3]: induced IFN-gamma secretion
surface expression of CAR [6]: positive surface expression
activity in cell killing and cytokine secretion assays (Example 9) [4]: activity comparable to m971
target cell killing [4]: dose-dependent target cell killing

B6: NVS 3: human anti-human CD123 clone expressing CAR123-3 (antibody, V domains shown)
VH: QVQLVQSGAEVKKPGASVKVSCKASGYIFTGYYIHWVRQAPGQGLEWMGWINPNSGGTNYAQKFQGRVTMTRDTSISTAYMELSGLRSDDPAVYYCARDMNILATVPFDIWGQGTLVTVSS
VL: DIQLTQSPSSLSASVGDRVTITCRASQSISSYLNWYQQKPGKAPKLLIYAASSLQSGVPSRFSGSGSGTDFTLTVNSLQPEDFATYYCQQGDSVPLTFGGGTKVEIK
cross-reactivity against cynomolgus CD123 [7]: cross-reactive against cynomolgus CD123

B7: NVS 4: human anti-human CD123 clone expressing CAR123-4 (antibody, V domains shown)
VH: QVQLQQSGAEVKKSGASVKVSCKASGYTFTDYYMHWLRQAPGQGLEWMGWINPNSGDTNYAQKFQGRVTLTRDTSISTVYMELSRLRSDDTAVYYCARDMNILATVPFDIWGQGTMVTVSS
VL: DIQMTQSPSSLSASVGDRVTITCRASQSISSYLNWYQQKPGKAPKLLIYAASSLQSGVPSRFSGSGSGTDFTLTISSLQPEDFATYYCQQGDSVPLTFGGGTKVEIK
cross-reactivity against cynomolgus CD123 [7]: cross-reactive against cynomolgus CD123
